Article PMC10943277 (The Journal of Cell Biology, 2024)

Target: T1, Sly1 (wild-type) (S. cerevisiae, UniProt P22213 1-666)
T1 sequence: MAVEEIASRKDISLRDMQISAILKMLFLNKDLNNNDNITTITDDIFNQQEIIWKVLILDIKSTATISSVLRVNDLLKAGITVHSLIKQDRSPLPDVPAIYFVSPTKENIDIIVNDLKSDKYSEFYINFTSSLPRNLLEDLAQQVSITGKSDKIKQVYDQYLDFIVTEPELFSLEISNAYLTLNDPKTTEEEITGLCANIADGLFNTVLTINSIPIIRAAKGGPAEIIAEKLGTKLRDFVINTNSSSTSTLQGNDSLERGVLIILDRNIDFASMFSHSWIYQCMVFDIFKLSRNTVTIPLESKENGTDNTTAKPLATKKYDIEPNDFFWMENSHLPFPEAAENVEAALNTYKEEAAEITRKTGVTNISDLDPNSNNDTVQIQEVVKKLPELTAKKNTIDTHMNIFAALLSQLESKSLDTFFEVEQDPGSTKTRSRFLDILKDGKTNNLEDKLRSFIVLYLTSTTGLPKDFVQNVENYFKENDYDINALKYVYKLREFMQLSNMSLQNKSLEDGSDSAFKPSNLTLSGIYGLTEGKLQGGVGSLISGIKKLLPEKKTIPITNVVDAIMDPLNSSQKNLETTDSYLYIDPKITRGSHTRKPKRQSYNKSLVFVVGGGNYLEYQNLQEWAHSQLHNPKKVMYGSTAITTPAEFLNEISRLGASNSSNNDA
Assay: pull-down

binding result: binds
B1: GST-Sed5 cytoplasmic domain (domain or fragment, S. cerevisiae, UniProt Q01590 1-319, looked up)
chain: MNIKDRTSEFQQSVLSYKKRNKNFREQQRERLQEKESENFANNTTGNGKSVSEFQKKASGIAHEISSTAQLLSKLAVLAKRKPMFNDNPVEIAELSFLIKRKIYAIEQSLVQLSQLKKTDVNGNTSNQSSKQPSAVQHSKNVVNLLNTQMKNISGSFKDVLEERQRLEMANKDRWQKLTTDTGHAPADDQTQSNHAADLTTYNNSNPFMTSLLDESSEKNNNSSNQGELSFPQNDSQLMLMEEGQLSNNVYLQERNRAVETIESTIQEVGNLFQQLASMVQEQGEVIQRIDANVDDIDLNISGAQRELLKYFDRIKSNR
